In US20250043019A1 (Janssen / Centocor, published 2025):
Numbering of substitutions follows the chain as printed. In names and notes the source's numbering stands.

Experiments:
[1] = molecular target: T1, human CD20 on the cell surface (human, UniProt P11836 1-297); test: flow cytometry, human B cells
T1 construct: whole, on cells; On B-lymphoma lines, primary B cells, K562 CD20 or HEK293 transfectants; also called MS4A1; B-lymphocyte antigen CD20
T1 sequence (looked up): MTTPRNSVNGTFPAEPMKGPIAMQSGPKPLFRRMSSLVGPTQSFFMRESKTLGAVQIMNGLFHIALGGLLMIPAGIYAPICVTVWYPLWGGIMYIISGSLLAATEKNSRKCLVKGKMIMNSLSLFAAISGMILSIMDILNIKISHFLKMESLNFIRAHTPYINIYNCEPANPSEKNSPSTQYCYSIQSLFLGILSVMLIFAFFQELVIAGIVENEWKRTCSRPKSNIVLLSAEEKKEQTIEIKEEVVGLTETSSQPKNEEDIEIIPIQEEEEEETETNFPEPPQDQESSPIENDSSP

[2] = molecular target: T2, cynomolgus monkey CD20 on B cells (cynomolgus monkey, UniProt M4ZHZ6 1-297); test: flow cytometry, cynomolgus B cells
T2 construct: whole, on cells
T2 sequence: T1 sequence (looked up) with S25P, F31L, T51A, A157V, K217R, N226S, I227V, T239V

[3] = molecular target: T3, human CD79b and CD20 co-expressed on the surface of B-lymphoma cell lines or primary B cells (human, UniProt P11836 1-297); test: cell-based or functional assay
T3 sequence 1: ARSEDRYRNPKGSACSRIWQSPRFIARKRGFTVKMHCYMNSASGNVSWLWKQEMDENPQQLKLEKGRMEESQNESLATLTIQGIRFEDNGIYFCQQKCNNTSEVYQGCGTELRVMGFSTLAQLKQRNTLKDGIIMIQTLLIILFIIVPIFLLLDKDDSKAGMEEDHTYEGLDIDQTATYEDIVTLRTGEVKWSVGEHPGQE
T3 sequence 2: T1 sequence (looked up)

[4] = molecular target: T3, human CD79b and CD20 co-expressed on …; test: cell-based or functional assay; remark: listed apart in the source
[5] = molecular target: T4, recombinant extracellular domain of human CD79b, short isoform (human, UniProt P40259 29-159); test: SPR Biacore 8k, antibody captured by anti-Fc, 25 C
T4 chain: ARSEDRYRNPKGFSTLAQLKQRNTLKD
Summary of the method: (§1)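 Antibodies captured on anti-human Fc C1 chip, CD79b extracellular domain injected in HBSP+ at 25 °C; association 2 or 3 min, dissociation 30 min. Double-referenced sensorgrams fitted to a 1:1 Langmuir model for on-rate, off-rate and affinity.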

[6] = molecular target: T5, recombinant extracellular domain of human CD79b, long isoform (human, UniProt P40259 29-159); test: SPR Biacore 8k, antibody captured by anti-Fc, 25 C
T5 construct: also called hu CD79b long
T5 sequence: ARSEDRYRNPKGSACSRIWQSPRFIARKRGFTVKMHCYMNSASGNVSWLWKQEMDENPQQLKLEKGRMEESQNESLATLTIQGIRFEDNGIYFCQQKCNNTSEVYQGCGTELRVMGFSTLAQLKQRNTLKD
Summary of the method: as §1

[7] = molecular target: T3, human CD79b and CD20 co-expressed on …; test: flow cytometry, HBL-1 cells (CD79b+ CD20+), 1 h 37 C
Method: (§2) All cells were washed with BD stain buffer (BD Biosciences; Cat #554657), centrifuged at 1200 RPM for 3 minutes, with supernatant discarded. Cells were then stained for 20 minutes at 4° C. with BD stain buffer containing AlexaFluor 647 labeled anti-human IgG secondary antibody (Jackson Immuno; Cat #109-606-098) at a 1:200 dilution along with Aqua Fixable Live/Dead stain (Invitrogen; Cat #L34957) at a 1:400 dilution. All cells were washed with BD stain buffer (BD Biosciences; Cat #554657), centrifuged at 1200 RPM for 3 mins, with supernatant discarded. Cells were analyzed using Intellicyt (Sartorius) flow cytometer and mean fluorescent intensity (MFI) was generated using Forcyt software (Sartorius). MFI was graphed and EC50 values generated using GraphPad PRISM v.8. Dose response curves were generated by transforming the x axis values using the formula […]. Data was then graphed using non-linear regression curve fit analysis “log(agonist) vs. response-variable slope (four parameter)”.

[8] = molecular target: T3, human CD79b and CD20 co-expressed on …; test: cell-based or functional assay; remark: listed apart in the source
[9] = molecular target: T3, human CD79b and CD20 co-expressed on …; test: cell-based or functional assay; remark: listed apart in the source
[10] = molecular target: T6, cynomolgus monkey CD79b antigen (cynomolgus monkey); test: SPR Biacore 8k, cyno CD79b injected up to 3000 nM
T6 construct: also called cyno CD79b; CD9W1.001
Summary of the method: as §1

[11] = molecular target: T3, human CD79b and CD20 co-expressed on …; test: cell-based or functional assay; remark: listed apart in the source
[12] = molecular target: T3, human CD79b and CD20 co-expressed on …; test: flow cytometry, OCI-LY10 cells (CD79b+ CD20+), 1 h 37 C
Method: as §2

[13] = molecular target: T3, human CD79b and CD20 co-expressed on …; test: flow cytometry, Carnaval cells (CD79b+ CD20+), 1 h 37 C
Method: as §2

[14] = molecular target: T3, human CD79b and CD20 co-expressed on …; test: cell-based or functional assay; remark: listed apart in the source
[15] = molecular target: T6, cynomolgus monkey CD79b antigen; test: SPR

B1: C20B648 anti-CD20 binder (antibody, V domains shown)
VH: QVQLVQSGAEVKKPGSSVKVSCKASGYTFSSYNMHWVRQAPGQGLEWMGAIYPGAGDTSYAQKFQGRVTITADESTSTAYMELSSLRSEDTAVYYCARSNYYGSSGWYFDVWGKGTTVTVSS
VL: EIVLTQSPATLSLSPGERATLSCRASLSVSSMHWYQQKPGQAPRLLIYATSNLASGIPARFSGSGSGTDFTLTISSLEPEDFAVYYCQQWIFNPPTFGGGTKVEIK
binding result [1]: binds
binding result [2]: binds

B2: C923B74 CD79bxCD20xCD3 trispecific antibody (other)
heavy: QVQLQQSGPGLVKPSQTLSLTCAISGDSVSSNSATWNWIRQSPSRGLEWLGRTYYRSKWYNDYTVSVKSRITINPDTSKNQFSLQLNSVTPEDTAVYYCTRVDIAFDYWGQGTLVTVSSASTKGPSVFPLAPSSKSTSGGTAALGCLVKDYFPEPVTVSWNSGALTSGVHTFPAVLQSSGLYSLSSVVTVPSSSLGTQTYICNVNHKPSNTKVDKKVEPKSCDKTHTCPPCPAPEAAGGPSVFLFPPKPKDTLMISRTPEVTCVVVSVSHEDPEVKFNWYVDGVEVHNAKTKPREEQYNSTYRVVSVLTVLHQDWLNGKEYKCKVSNKALPAPIEKTISKAKGQPREPQVYTLPPSREEMTKNQVSLSCAVKGFYPSDIAVEWESNGQPENNYKTTPPVLDSDGSFFLVSKLTVDKSRWQQGNVFSCSVMHEALHNRFTQKSLSLSPGK
light: QTVVTQPPSVSEAPRQRVTISCSGSSSNIGNHGVNWYQQLPGKAPKLLIYNDDLLPSGVSDRFSGSTSGTSGSLAISGLQSEDEADYYCAAWDDSLNGVVFGGGTKLTVLGQPKAAPSVTLFPPSSEELQANKATLVCLISDFYPGAVTVAWKADSSPVKAGVETTTPSKQSNNKYAASSYLSLTPEQWKSHRSYSCQVTHEGSTVEKTVAPTECS
chain: EIVLTQSPATLSASPGERVTLSCSASSSVSYMNWYQQKPGQAPRRWIYDSSKLASGVPARFSGSGSGRDYTLTISSLEPEDFAVYYCQQWSRNPPTFGGGTKVEIKGGSEGKSSGSGSESKSTGGSQVQLVQSGAEVKKPGSSVKVSCKASGYTFTRSTMHWVKQAPGQGLEWIGYINPSSAYTNYNQKFQGRVTLTADKSTSTAYMELSSLRSEDTAVYYCASPQVHYDYAGFPYWGQGTLVTVSSEPKSSDKTHTCPPCPAPEAAGGPSVFLFPPKPKDTLMISRTPEVTCVVVSVSHEDPEVKFNWYVDGVEVHNAKTKPREEQYNSTYRVVSVLTVLHQDWLNGKEYKCKVSNKALPAPIEKTISKAKGQPREPQVYTLPPSREEMTKNQVSLWCLVKGFYPSDIAVEWESNGQPENNYKTTPPVLDSDGSFFLYSKLTVDKSRWQQGNVFSCSVMHEALHNHYTQKSLSLSPGKGGSEGKSSGSGSESKSTGGSAIQLTQSPSSLSASVGDRVTITCRASSSVSYIHWFQQKPGKAPKPLIYATSNLASGVPSRFSGSGSGTDFTLTISSLQPEDFATYYCQQWTSNPPTFGQGTKLEIKGGSEGKSSGSGSESKSTGGSQVQLVQSGAEVKKPGSSVKVSCKASGYTFTSYNMHWVRQAPGQGLEWMGAIYPGNGDTSYAQKFQGRVTITADKSTSTAYMELSSLRSEDTAVYYCARSTYYGGDWYFNVWGQGTLVTVSS
notes: Trispecific IgG1; also called CD9B330-N31S / CD3B2030-N106A-scFv-LH-C20B22
IC50, T-cell killing of HBL-1 (Incucyte) [3]: 0.346 nM
IC50, CARNAVAL killing, 72 h (FACS) [4]: 0.35 nM
IC50, HBL-1 killing, 72 h (FACS) [4]: 2.42 nM
IC50, OCI-LY10 killing, 72 h (FACS) [4]: 24.2 nM
Kd [5]: 0.39 nM
Kd [6]: 0.023 nM
EC50 [7]: 52 nM
IC50, CARNAVAL killing (Incucyte) [8]: 0.741 nM
Cmax (maximum cytotoxicity), donor 1 [9]: 34%
Cmax (maximum cytotoxicity), donor 2 [9]: 66%
Cmax (maximum cytotoxicity), donor 3 [9]: 40%
EC50, autologous B-cell depletion, donor 1 [9]: 78 nM
EC50, autologous B-cell depletion, donor 2 [9]: 23 nM
Kd [10]: > 3000 nM
IC50, T-cell killing of OCI-Ly10 (Incucyte) [11]: 25.6 nM
EC50 [12]: 66 nM
EC50 [13]: 23 nM
IC50, Daudi killing (Incucyte) [14]: 0.1 nM

B3: C923B38 CD79bxCD20xCD3 trispecific antibody (other)
heavy: QVQLQESGPGLVKPSETLSLTCSVSGASISSFYWSWIRQPADEGLEWIGRISPSGKTNYIPSLKSRIIMSLDASKNQFSLRLNSVTAADTAMYYCARGEYSGTYSYSFDVWGQGTMVTVSSASTKGPSVFPLAPSSKSTSGGTAALGCLVKDYFPEPVTVSWNSGALTSGVHTFPAVLQSSGLYSLSSVVTVPSSSLGTQTYICNVNHKPSNTKVDKKVEPKSCDKTHTCPPCPAPEAAGGPSVFLFPPKPKDTLMISRTPEVTCVVVSVSHEDPEVKFNWYVDGVEVHNAKTKPREEQYNSTYRVVSVLTVLHQDWLNGKEYKCKVSNKALPAPIEKTISKAKGQPREPQVYTLPPSREEMTKNQVSLSCAVKGFYPSDIAVEWESNGQPENNYKTTPPVLDSDGSFFLVSKLTVDKSRWQQGNVFSCSVMHEALHNRFTQKSLSLSPGK
light: DIVMTQSPLSLSVTPGEPASISCRSSESLLDSEDGNTYLDWFLQKPGQSPQLLIYTLSYRASGVPDRFSGSGSDTDFTLHISSLEAEDVGLYYCMQRMEFPLTFGQGTKVEIKRTVAAPSVFIFPPSDEQLKSGTASVVCLLNNFYPREAKVQWKVDNALQSGNSQESVTEQDSKDSTYSLSSTLTLSKADYEKHKVYACEVTHQGLSSPVTKSFNRGEC
chain: B2 chain
notes: Trispecific IgG1: CD79b Fab arm (HC1/LC) plus one chain CD3 scFv-Fc-CD20 scFv; also called CD9B374 / CD3B2030-N106A-scFv-LH-C20B22
Kd [15]: > 3000 nM
